The target in assay [1] is CheC (Thermotoga maritima) (UniProt Q9X006). The experiment in a line: ITC. Particulars: cited from earlier work.
Assay [2] deals with GST-CheD (B. subtilis) (UniProt P40404). The experiment in a line: pull-down.
In assay [3] the target is T1, 6xHis-McpC cytoplasmic fragment (wild type, unmodified) (B. subtilis, UniProt P54576 298-655).
T1 sequence (looked up): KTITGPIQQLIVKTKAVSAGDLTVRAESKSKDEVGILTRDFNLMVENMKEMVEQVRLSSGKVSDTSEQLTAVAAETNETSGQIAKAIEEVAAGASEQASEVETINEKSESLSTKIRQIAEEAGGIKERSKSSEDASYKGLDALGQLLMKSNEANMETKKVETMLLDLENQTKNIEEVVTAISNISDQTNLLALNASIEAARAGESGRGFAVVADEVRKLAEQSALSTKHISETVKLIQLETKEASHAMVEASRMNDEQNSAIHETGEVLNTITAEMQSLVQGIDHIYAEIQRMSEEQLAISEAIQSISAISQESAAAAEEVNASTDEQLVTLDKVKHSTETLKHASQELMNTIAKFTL
The experiment in a line: pull-down.

CheC (Thermotoga maritima), sequence (Q9X006 whole entry): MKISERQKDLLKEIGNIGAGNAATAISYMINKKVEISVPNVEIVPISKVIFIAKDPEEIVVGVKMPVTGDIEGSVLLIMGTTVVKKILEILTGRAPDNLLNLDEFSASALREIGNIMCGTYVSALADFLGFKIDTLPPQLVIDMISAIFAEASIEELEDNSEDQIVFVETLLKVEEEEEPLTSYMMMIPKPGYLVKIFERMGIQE

Regarding CheD (from UniProt Q9X005), the Kd in assay [1] was 1 µM.

On to “Deamidated (Q609E) McpC cytoplasmic chemoreceptor fragment (from UniProt P54576 1-655) (domain or fragment)”, for which, in assay [2], the Kd stood at 117 µM and the percent of chemoreceptor bound amounted to 13.2%.

B1: GST-CheD (enzyme, B. subtilis, UniProt P40404 1-166, looked up)
chain: MSTTEAVVIKVGIADVKIARFPDTIRTSGLGSCVGLVLYDKEKQTAGLVHVMLPDSTLSKTAELNRAKYADTAVQTTIDMLIEAGCRKFALKAKLAGGSEMFKFKSTNDLMKIGPRNVLAIKEQLSLFNIPIISEDTGGSSGRTIEFEPKSCMLHIRTVKQGEKTI
As for B1, binding in assay [3] was put at a Kd of 202 µM.

As usually defined, the Kd is the free concentration of one partner at which half of the binding sites on the other are occupied at equilibrium, for simple one-to-one binding.

The values above are taken from article PMC3480970 (Molecular microbiology, 2012).
